Experimental data as given in publication PMC5689619.

How the values were obtained:
GST-RAB40C = GST-RAB40C (UniProt Q96S21)
GST-H-Ras = GST-H-Ras (UniProt P01112)

How did the Kcat/KM ratio (catalytic efficiency) of GAP-stimulated GTP hydrolysis, release of inorganic phosphate (GST-RAB40C) turn out when “GST-GAP (DAB2IP GAP domain) (domain or fragment)” was run?
Its Kcat/KM ratio (catalytic efficiency) of GAP-stimulated GTP hydrolysis, release of inorganic phosphate is 114.

What about the Kcat/KM ratio (catalytic efficiency) of GAP-stimulated GTP hydrolysis, release of inorganic phosphate (GST-H-Ras) of the same substance?
The Kcat/KM ratio (catalytic efficiency) of GAP-stimulated GTP hydrolysis, release of inorganic phosphate was 229.

What does the source list for “GST-GAP R385L (DAB2IP GAP domain, catalytically defective mutant) (domain or fragment)”?
Kcat/KM ratio (catalytic efficiency) of GAP-stimulated GTP hydrolysis, release of inorganic phosphate (GST-RAB40C): 66; Kcat/KM ratio (catalytic efficiency) of GAP-stimulated GTP hydrolysis, release of inorganic phosphate (GST-H-Ras): 102
